Holding throughout (assay): SPR, antibody captured, C2 as analyte;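 further: biacore SPR at 37 °C, anti-C2 mAbs captured via goat anti-human IgG on CM5 chips, double-referenced sensorgrams fit to a 1:1 kinetic or steady-state model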
In general terms: In SPR one partner is held on a chip, and binding of the other changes the refractive index at the surface.

One test deals with T1, human C2 M452A (human, UniProt P06681 21-752).
T1 sequence: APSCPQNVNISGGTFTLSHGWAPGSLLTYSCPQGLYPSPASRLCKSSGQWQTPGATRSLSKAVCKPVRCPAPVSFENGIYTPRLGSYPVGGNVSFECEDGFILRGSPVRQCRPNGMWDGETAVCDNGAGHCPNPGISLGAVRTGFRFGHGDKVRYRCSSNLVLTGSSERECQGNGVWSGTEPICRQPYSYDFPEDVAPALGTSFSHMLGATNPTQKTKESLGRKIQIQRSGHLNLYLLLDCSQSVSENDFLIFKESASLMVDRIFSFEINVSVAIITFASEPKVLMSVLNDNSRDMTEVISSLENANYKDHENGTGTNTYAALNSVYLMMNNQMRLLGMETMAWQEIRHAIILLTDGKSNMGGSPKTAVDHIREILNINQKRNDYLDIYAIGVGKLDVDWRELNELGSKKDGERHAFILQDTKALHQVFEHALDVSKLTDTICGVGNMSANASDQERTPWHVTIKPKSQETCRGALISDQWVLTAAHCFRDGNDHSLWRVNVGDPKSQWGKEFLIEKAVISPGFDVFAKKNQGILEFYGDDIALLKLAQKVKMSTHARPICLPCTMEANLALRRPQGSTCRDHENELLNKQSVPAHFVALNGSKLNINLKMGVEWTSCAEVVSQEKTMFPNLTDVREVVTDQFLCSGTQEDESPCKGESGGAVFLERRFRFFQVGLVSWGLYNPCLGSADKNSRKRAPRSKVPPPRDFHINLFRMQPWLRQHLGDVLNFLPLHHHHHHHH

The target in a further test is T2, human C2 R714A (human, UniProt P06681 21-752).
T2 sequence: T1 sequence with A432M, R694A

A further test deals with T3, human C2 S428A (human, UniProt P06681 21-752).
T3 sequence: T1 sequence with S408A, A432M

A further test deals with T4, human C2 K485A (human, UniProt P06681 21-752).
T4 sequence: T1 sequence with A432M, K465A

Positions count from the first letter of the chain named.

Procedure for human C2 K485A: (§1) Surface plasmon resonance (SPR, Biacore) was used for all binding affinity analyses. In brief, goat anti-human IgG was directly immobilised onto the carboxymethyl dextran surface of CM5 sensorchips to approximately 12,000 RU using standard NHS/EDC chemistry at pH 5. The immobilised antibody surface was pre-conditioned with ten injections of polyclonal human IgG (Privigen 60 s) prepared at 1 μg/mL. Ligands (anti-C2 mAbs) were captured at the beginning of each cycle as described below. An adjacent spot or flow cell in which only Polyclonal IgG was capture was used as a reference surface. The goat anti-human IgG Fc antibody surface was regenerate in 100 mM H3PO4, injected for 45 seconds at the end of each cycle. Experiments were performed at 37° C. and the flow rate of each experiment was kept constant at 30 μL/min.
(§2) Sensogram data was double-referenced against a reference anti-IgG surface (i.e. minus anti-C2 mAb) and blank buffer injections obtained within each experiment. The binding data was fit to 1:1 (kinetic or steady-state) model using local Rmax and null refraction index (RI=0) when appropriate. Buffers and solutions were filtered (0.22 μm) prior to use.
Procedure for human C2 M452A: as §1, §2
Procedure for human C2 R714A: as §1, §2
Procedure for human C2 S428A: as §1, §2

B1: RF16-226 (antibody, human IgG4 S228P, lambda)
heavy: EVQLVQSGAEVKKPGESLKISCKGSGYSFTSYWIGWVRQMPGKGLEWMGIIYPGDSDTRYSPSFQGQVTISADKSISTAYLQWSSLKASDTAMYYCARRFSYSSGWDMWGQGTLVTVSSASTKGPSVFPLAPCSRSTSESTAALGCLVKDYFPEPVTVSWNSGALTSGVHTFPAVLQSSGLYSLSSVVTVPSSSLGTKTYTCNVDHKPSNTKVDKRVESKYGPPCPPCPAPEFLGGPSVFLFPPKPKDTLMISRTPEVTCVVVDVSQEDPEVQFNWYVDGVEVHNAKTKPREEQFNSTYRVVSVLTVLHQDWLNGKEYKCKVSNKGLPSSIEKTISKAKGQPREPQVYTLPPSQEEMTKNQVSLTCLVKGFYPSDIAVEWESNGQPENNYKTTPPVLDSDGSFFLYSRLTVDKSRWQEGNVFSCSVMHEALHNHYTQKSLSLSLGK
light: SYELTQPPSVSVSPGQTARITCSGDALTSKYVAWYQQKSGLAPLLVIYEDTRRPSGIPAKFSGSSSGSVATLTISGAHGDDEADYYCYSTDASGHQRVFGGGTKLTVLSQPKAAPSVTLFPPSSEELQANKATLVCLISDFYPGAVTVAWKADGSPVKAGVETTKPSKQSNNKYAASSYLSLTPEQWKSHRSYSCQVTHEGSTVEKTVAPTECS
notes: pH-dependent anti-C2 antibody from a phage display library; also called WT
Consider B1, for which the Kd – broadly, the equilibrium constant for the complex coming apart – came out at 4.1 nM with human C2 M452A, 53 nM in the test with human C2 R714A, 18.8 nM with human C2 S428A and 12.5 nM with human C2 K485A.

The record behind these values is patent US20220332804A1 (CSL INNOVATION, published 2022).
